Source: PMC7971519

Target: PRRSV nonstructural protein 2 transframe product (nsp2TF) (porcine reproductive and respiratory syndrome virus 2 (PRRSV-2), isolate SD95-21)
Experiment: co-IP; lysates of PRRSV-infected MARC-145 cells collected at 8, 10 and 12 hpi; IP with rabbit anti-nsp2TF pAb or anti-nsp2 pAb (C-terminal peptides); blots probed with anti-GP5 and anti-M mAbs; densitometry; mock-infected lysate as control

In the case of “PRRSV GP5 glycoprotein (natural protein)”, the fold more GP5 co-precipitated than in the nsp2 IP, 8 hpi is reported as 3.39 fold, the fold more GP5 co-precipitated than in the nsp2 IP, 10 hpi is reported as 3.26 fold and the fold more GP5 co-precipitated than in the nsp2 IP, 12 hpi is reported as 3.36 fold.

With “PRRSV membrane (M) protein (natural protein)” the fold more M protein co-precipitated than in the nsp2 IP, 8 hpi was 3.38 fold, the fold more M protein co-precipitated than in the nsp2 IP, 10 hpi was 3.44 fold and the fold more M protein co-precipitated than in the nsp2 IP, 12 hpi was 2.77 fold.
